In paper PMC8034652 (Nucleic Acids Research, 2021):

Legend:
[1] = target: T1, FOXO1-DBD (human, UniProt Q12778 151-266); test: crystal structure
[2] = target: T2, FOXC2-DBD (UniProt Q99958 72-171); test: crystal structure
T2 sequence: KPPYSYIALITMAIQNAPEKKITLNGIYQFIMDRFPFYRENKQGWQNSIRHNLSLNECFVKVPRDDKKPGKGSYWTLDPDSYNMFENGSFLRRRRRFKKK

[3] = target: the molecule itself; test: crystal structure
[4] = target: the molecule itself; test: […]
[5] = target: T1, FOXO1-DBD; test: ITC
[6] = target: FOXO1-DBD Q227R (human, UniProt Q12778 151-266, Q227R); test: EMSA
[7] = target: FOXO1-DBD R225E (human, UniProt Q12778 151-266, R225E); test: EMSA
[8] = target: T2, FOXC2-DBD; test: EMSA
[9] = target: T3, FOXM1-DBD (UniProt Q08050 222-360); test: EMSA
T3 sequence: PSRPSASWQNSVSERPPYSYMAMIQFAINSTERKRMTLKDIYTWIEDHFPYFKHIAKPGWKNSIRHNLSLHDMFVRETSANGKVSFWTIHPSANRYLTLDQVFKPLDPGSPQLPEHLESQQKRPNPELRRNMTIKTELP

[10] = target: FOXO3-DBD (UniProt O43524 158-253); test: EMSA
[11] = target: T4, FOXI1-DBD (UniProt Q12951 119-223); test: EMSA
T4 sequence: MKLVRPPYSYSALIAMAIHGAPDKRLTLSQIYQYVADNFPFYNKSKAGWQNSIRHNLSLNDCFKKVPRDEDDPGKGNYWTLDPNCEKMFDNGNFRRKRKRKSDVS

B1: DIV2 20-bp crystal DNA (dsDNA)
DNA 1: ACCGTAAACATGTTTACGGT
DNA 2: ACCGTAAACATGTTTACGGT
[1]
  binding result: binds
[2]
  binding result: binds

B2: human FOXO1-DBD (residues 151-266) (domain or fragment)
chain: KSSSSRRNAWGNLSYADLITKAIESSAEKRLTLSQIYEWMVKSVPYFKDKGDSNSSAGWKNSIRHNLSLHSKFIRVQNEGTGKSSWWMLNPEGGKSGKSPRRRAASMDNNSKFAKS
[3]
  stoichiometry N: 2

B3: FOXI1-DBD (residues 119-223) (domain or fragment)
chain: MKLVRPPYSYSALIAMAIHGAPDKRLTLSQIYQYVADNFPFYNKSKAGWQNSIRHNLSLNDCFKKVPRDEDDPGKGNYWTLDPNCEKMFDNGNFRRKRKRKSDVS
[4]
  binding result: binds

B4: FOXO3-DBD (residues 158-253) (domain or fragment)
chain: GNLSYADLITRAIESSPDKRLTLSQIYEWMVRCVPYFKDKGDSNSSAGWKNSIRHNLSLHSRFMRVQNEGTGKSSWWIINPDGGKSGKAPRRRAVS
[4]
  binding result: binds

B5: FKH_26 (dsDNA)
DNA 1: GACGAAGTAAACACGGCAGGTTCGTC
DNA 2: GACGAACCTGGCGTGTTTACTTCGTC
[5]
  Kd: 1380 nM
[6]
  binding result: binds
[7]
  binding result: binds

B6: DIV2_26 (dsDNA)
DNA 1: GACGAAGTAAACATGTTTACTTCGTC
DNA 2: GACGAAGTAAACATGTTTACTTCGTC
[8]
  binding result: binds
[5]
  Kd: 150 nM
[9]
  binding result: binds
[10]
  binding result: binds
[11]
  binding result: binds
